Series [1] deals with the molecule itself. Kind of series: SEC-SAXS.
Series [2] concerns the molecule itself. Kind of series: SEC-SAXS. This is another data set of the same source.

Values joined by “and” are separate entries in the source; they are usually repeats but may differ in a detail not shown here. Equal entries are not always repeated. Where two headings read alike, the source gives them in different places.

B1: C-phycocyanin (αβ) monomer from Spirulina platensis (complex)
chain 1: not shown
chain 2: MFDAFTKVVSQADTRGEMLSTAQIDALSQMVAESNKRLDAVNRITSNASTIVSNAARSLFAEQPQLIAPGGNAYTSRRMAACLRDMEIILRYVTYAVFAGDASVLEDRCLNGLRETYLALGTPGSSVAVGVGKMKEAALAIVNDPAGITPGDCSALASEIASYFDRACAAVS
modifications: open-chain tetrapyrrole chromophore cofactors attached covalently | open-chain tetrapyrrole chromophore cofactors attached covalently
In the case of B1, the “stoichiometry N” value in the series “SEC-SAXS [1]” is 3; in “SEC-SAXS [2]”, 12 and 24.

Values taken from article PMC9131392 (Biomacromolecules, 2021).
